Literature values, collected in article PMC10653114.

Legend:
Asp26 = Asp26 (UniProt position 26, KLVVVDFSATW); conditions: 298 K; Conc. 0.00 (unit not given; Na+/Cl–)
Glu56 = Glu56 (UniProt position 56, NVIFLEVDVDD); conditions: 298 K; Conc. 0.00 (unit not given; Na+/Cl–)
Glu6 [1] = biological target: Glu6 (UniProt position 6, MVKQIESKTAF); conditions: 298 K; Conc. 0.00 (unit not given; Na+/Cl–)
Glu103 = Glu103 (UniProt position 103, EATINELV---); conditions: 298 K; Conc. 0.00 (unit not given; Na+/Cl–)
Glu47 = Glu47 (UniProt position 47, FHSLSEKYSNV); conditions: 298 K; Conc. 0.00 (unit not given; Na+/Cl–)
Glu98 = Glu98 (UniProt position 98, NKEKLEATINE); conditions: 298 K; Conc. 0.00 (unit not given; Na+/Cl–)
Glu68 = Glu68 (UniProt position 68, QDVASECEVKC); conditions: 298 K; Conc. 0.00 (unit not given; Na+/Cl–)
Glu95 = Glu95 (UniProt position 95, SGANKEKLEAT); conditions: 298 K; Conc. 0.00 (unit not given; Na+/Cl–)
Asp64 = Asp64 (UniProt position 64, VDDCQDVASEC); conditions: 298 K; Conc. 0.00 (unit not given; Na+/Cl–)
Glu88 = Glu88 (UniProt position 88, GQKVGEFSGAN); conditions: 298 K; Conc. 0.00 (unit not given; Na+/Cl–)
Glu70 = Glu70 (UniProt position 70, VASECEVKCMP); conditions: 298 K; Conc. 0.00 (unit not given; Na+/Cl–)
Asp20 = Asp20 (UniProt position 20, LDAAGDKLVVV); conditions: 298 K; Conc. 0.00 (unit not given; Na+/Cl–)
Asp16 = Asp16 (UniProt position 16, FQEALDAAGDK); conditions: 298 K; Conc. 0.00 (unit not given; Na+/Cl–)
Glu13 = Glu13 (UniProt position 13, KTAFQEALDAA); conditions: 298 K; Conc. 0.00 (unit not given; Na+/Cl–)
Asp61 [2] = biological target: Asp61 (UniProt position 435, STVTQDGSAVT); conditions: 298 K; Conc. 0.10 (unit not given; K+/Cl–)
Asp61 [3] = biological target: Asp61 (UniProt position 435, STVTQDGSAVH); conditions: 298 K; Conc. 0.10 (unit not given; K+/Cl–)
Lys51 = Lys51 (UniProt position 291, LKSFHKPVTSY); test: NMR (per the title of cited ref 99); conditions: 298 K; Conc. 0.10 (unit not given; K+/Cl–)
Lys72 = Lys72 (UniProt position 312, KRMAEKIIEIL); test: NMR (per the title of cited ref 99); conditions: 298 K; Conc. 0.10 (unit not given; K+/Cl–)
Lys41 = Lys41 (UniProt position 281, ALGYAKAINAL); test: NMR (per the title of cited ref 99); conditions: 298 K; Conc. 0.10 (unit not given; K+/Cl–)
Lys67 = Lys67 (UniProt position 307, IPGIGKRMAEK); test: NMR (per the title of cited ref 99); conditions: 298 K; Conc. 0.10 (unit not given; K+/Cl–)
Lys8 = Lys8 (UniProt position 248, QPSSQKATNHN); test: NMR (per the title of cited ref 99); conditions: 298 K; Conc. 0.10 (unit not given; K+/Cl–)
Lys19 = Lys19 (UniProt position 259, LHITEKLEVLA); test: NMR (per the title of cited ref 99); conditions: 298 K; Conc. 0.10 (unit not given; K+/Cl–)
Lys47 = Lys47 (UniProt position 287, AINALKSFHKP); test: NMR (per the title of cited ref 99); conditions: 298 K; Conc. 0.10 (unit not given; K+/Cl–)
Lys33 = Lys33 (UniProt position 273, SVQGDKWRALG); test: NMR (per the title of cited ref 99); conditions: 298 K; Conc. 0.10 (unit not given; K+/Cl–)
Lys25 = Lys25 (UniProt position 265, LEVLAKAYSVQ); test: NMR (per the title of cited ref 99); conditions: 298 K; Conc. 0.10 (unit not given; K+/Cl–)
Lys84 = Lys84 (UniProt position 324, SGHLRKLDHIS); test: NMR (per the title of cited ref 99); conditions: 298 K; Conc. 0.10 (unit not given; K+/Cl–)
Lys21 = Lys21 (UniProt position 22, FSLFDKDGDGT); conditions: 298 K; Conc. 0.10 (unit not given; K+/Cl–); apo (Ca2+-free) calmodulin, per the Supplemental Methods, which build an apo model
Lys94 = Lys94 (UniProt position 95, FRVFDKDGNGY); conditions: 298 K; Conc. 0.10 (unit not given; K+/Cl–); apo (Ca2+-free) calmodulin, per the Supplemental Methods, which build an apo model
Lys75 = Lys75 (UniProt position 76, TMMARKMKDTD); conditions: 298 K; Conc. 0.10 (unit not given; K+/Cl–); apo (Ca2+-free) calmodulin, per the Supplemental Methods, which build an apo model
Lys30 = Lys30 (UniProt position 31, GTITTKELGTV); conditions: 298 K; Conc. 0.10 (unit not given; K+/Cl–); apo (Ca2+-free) calmodulin, per the Supplemental Methods, which build an apo model
Lys13 [4] = biological target: Lys13 (UniProt position 14, QIAEFKEAFSL); conditions: 298 K; Conc. 0.10 (unit not given; K+/Cl–); apo (Ca2+-free) calmodulin, per the Supplemental Methods, which build an apo model
Lys77 = Lys77 (UniProt position 78, MARKMKDTDSE); conditions: 298 K; Conc. 0.10 (unit not given; K+/Cl–); apo (Ca2+-free) calmodulin, per the Supplemental Methods, which build an apo model
Lys13 [5] = biological target: Lys13 (UniProt position 142, CSEYPKPACTL); conditions: 298 K; Conc. 0.015 (unit not given; K+/Cl–)
Asp7 = Asp7 (UniProt position 136, AAVSVDCSEYP); conditions: 298 K; Conc. 0.015 (unit not given; K+/Cl–)
Lys34 = Lys34 (UniProt position 163, KTYGNKCNFCN); conditions: 298 K; Conc. 0.015 (unit not given; K+/Cl–)
Lys55 = Lys55 (UniProt position 184, LSHFGKC----); conditions: 298 K; Conc. 0.015 (unit not given; K+/Cl–)
Lys29 = Lys29 (UniProt position 158, CGSDNKTYGNK); conditions: 298 K; Conc. 0.015 (unit not given; K+/Cl–)
Asp27 = Asp27 (UniProt position 156, PLCGSDNKTYG); conditions: 298 K; Conc. 0.015 (unit not given; K+/Cl–)
Glu57 = Glu57 (UniProt position 57, AIVALEALKEH); test: NMR (per the title of cited ref 95); conditions: 300 K; Conc. 0.10 (unit not given; Na+/Cl–)
Glu147 = Glu147 (UniProt position 147, MNPTLEDTGYQ); test: NMR (per the title of cited ref 95); conditions: 300 K; Conc. 0.10 (unit not given; Na+/Cl–)
Asp134 = Asp134 (UniProt position 134, ENERCDELARA); test: NMR (per the title of cited ref 95); conditions: 300 K; Conc. 0.10 (unit not given; Na+/Cl–)
Asp94 = Asp94 (UniProt position 94, GWKTADKKPVK); test: NMR (per the title of cited ref 95); conditions: 300 K; Conc. 0.10 (unit not given; Na+/Cl–)
Asp70 = Asp70 (UniProt position 70, VILSTDSQYVR); test: NMR (per the title of cited ref 95); conditions: 300 K; Conc. 0.10 (unit not given; Na+/Cl–)
Glu61 = Glu61 (UniProt position 61, LEALKEHCEVI); test: NMR (per the title of cited ref 95); conditions: 300 K; Conc. 0.10 (unit not given; Na+/Cl–)
Asp10 = Asp10 (UniProt position 10, VEIFTDGSCLG); test: NMR (per the title of cited ref 95); conditions: 300 K; Conc. 0.10 (unit not given; Na+/Cl–)
Glu131 = Glu131 (UniProt position 131, GHPENERCDEL); test: NMR (per the title of cited ref 95); conditions: 300 K; Conc. 0.10 (unit not given; Na+/Cl–)
Glu135 = Glu135 (UniProt position 135, NERCDELARAA); test: NMR (per the title of cited ref 95); conditions: 300 K; Conc. 0.10 (unit not given; Na+/Cl–)
Asp108 = Asp108 (UniProt position 108, LWQRLDAALGQ); test: NMR (per the title of cited ref 95); conditions: 300 K; Conc. 0.10 (unit not given; Na+/Cl–)
Glu119 = Glu119 (UniProt position 119, HQIKWEWVKGH); test: NMR (per the title of cited ref 95); conditions: 300 K; Conc. 0.10 (unit not given; Na+/Cl–)
Glu48 = Glu48 (UniProt position 48, TNNRMELMAAI); test: NMR (per the title of cited ref 95); conditions: 300 K; Conc. 0.10 (unit not given; Na+/Cl–)
Glu154 = Glu154 (UniProt position 154, TGYQVEV----); test: NMR (per the title of cited ref 95); conditions: 300 K; Conc. 0.10 (unit not given; Na+/Cl–)
Glu6 [6] = biological target: Glu6 (UniProt position 6, MLKQVEIFTDG); test: NMR (per the title of cited ref 95); conditions: 300 K; Conc. 0.10 (unit not given; Na+/Cl–)
Glu129 = Glu129 (UniProt position 129, HAGHPENERCD); test: NMR (per the title of cited ref 95); conditions: 300 K; Conc. 0.10 (unit not given; Na+/Cl–)
Glu32 = Glu32 (UniProt position 32, RYRGREKTFSA); test: NMR (per the title of cited ref 95); conditions: 300 K; Conc. 0.10 (unit not given; Na+/Cl–)
Glu64 = Glu64 (UniProt position 64, LKEHCEVILST); test: NMR (per the title of cited ref 95); conditions: 300 K; Conc. 0.10 (unit not given; Na+/Cl–)

For “Thioredoxin (human, reduced) (Homo sapiens)”, the pKa (Asp26) is given as 9.9 ± 0.10, the pKa (Glu56) is given as 3.1 ± 0.10 and the pKa (Glu6 [1]) is given as 4.8 ± 0.08. The pKa (Glu103) was 4.4 ± 0.07, the pKa (Glu47) was 4.1 ± 0.10 and the pKa (Glu98) was 3.9 ± 0.02. For the same substance, the pKa (Glu68) was 4.9 ± 0.07, the pKa (Glu95) was 4.1 ± 0.02 and the pKa (Asp64) was 3.2 ± 0.06. For the same substance, the pKa (Glu88) was 3.7 ± 0.08, the pKa (Glu70) was 4.6 ± 0.08 and the pKa (Asp20) was 3.8 ± 0.05. For the same substance, the pKa (Asp16) was 4.1 ± 0.10 and the pKa (Glu13) was 4.4 ± 0.07.
In the case of “Highly charge-depleted protein (PDB 6QFS), S61D variant (Cellulomonas fimi (parent domain; not stated in the article); S61D (on the 6QFS charge-depleted background; background substitutions not stated))”, the pKa (Asp61 [2]) is given as 4.15 ± 0.01.
For “Highly charge-depleted protein (PDB 6QFS), S61D/T66H variant (Cellulomonas fimi (parent domain; not stated in the article); S61D;T66H (on the 6QFS charge-depleted background; background substitutions not stated))”, the pKa (Asp61 [3]) is listed as 4.10 ± 0.02.
For “DNA polymerase lambda, lyase (8 kDa) domain (Homo sapiens)”, the pKa (Lys51) is given as 10.26 ± 0.14, the pKa (Lys72) is given as 9.58 ± 0.14 and the pKa (Lys41) is given as 10.01 ± 0.14. The pKa (Lys67) was 10.16 ± 0.14, the pKa (Lys8) was 10.27 ± 0.14 and the pKa (Lys19) was 10.07 ± 0.14. The pKa (Lys47) was 10.65 ± 0.14, the pKa (Lys33) was 10.07 ± 0.14 and the pKa (Lys25) was 10.23 ± 0.14. The pKa (Lys84) was 10.27 ± 0.14.
For “Calmodulin (apo) (Homo sapiens (as modelled in the article; source species of the measured sample not stated))”, the pKa (Lys21) is given as 10.55 ± 0.10, the pKa (Lys94) is given as 10.55 ± 0.10 and the pKa (Lys75) is given as 9.87 ± 0.10. The pKa (Lys30) was 10.55 ± 0.10, the pKa (Lys13 [4]) was 10.23 ± 0.10 and the pKa (Lys77) was 10.55 ± 0.10.
For “Turkey ovomucoid third domain (OMTKY3) (Meleagris gallopavo)”, the pKa (Lys13 [5]) is listed as 9.86 ± 0.03, the pKa (Asp7) is listed as 2.95 ± 0.03 and the pKa (Lys34) is listed as 10.13 ± 0.05. The pKa (Lys55) was 11.10 ± 0.06, the pKa (Lys29) was 11.12 ± 0.02 and the pKa (Asp27) was 2.56 ± 0.03.
For Ribonuclease HI (Escherichia coli), the pKa (Glu57) is given as 3.2, the pKa (Glu147) is given as 4.2 and the pKa (Asp134) is given as 4.1. For the same substance, the pKa (Asp94) was 3.2, the pKa (Asp70) was 2.6 and the pKa (Glu61) was 3.9. The pKa (Asp10) was 6.1, the pKa (Glu131) was 4.3 and the pKa (Glu135) was 4.3. For the same substance, the pKa (Asp108) was 3.2, the pKa (Glu119) was 4.1 and the pKa (Glu48) was 4.4. The pKa (Glu154) was 4.4, the pKa (Glu6 [6]) was 4.5 and the pKa (Glu129) was 3.6. The pKa (Glu32) was 3.6 and the pKa (Glu64) was 4.4.
